Tests used:
SEC = molecular target: the molecule itself; experiment: SEC
cross-linking = molecular target: the molecule itself; experiment: cross-linking

B1: GST cleaved Grb7RA domain (domain or fragment)
chain: GSHVVKVYSEDGACRSVEVAAGATARHVCEMLVQRAHALSDETWGLVECHPHLALERGLEDHESVVEVQAAWPVGGDSRFVFRKNFAK
stoichiometry N (SEC): 2
stoichiometry N (cross-linking): 3

B2: 6His-Grb7RA domain (domain or fragment, UniProt Q14451 102-187, looked up)
chain: HVVKVYSEDGACRSVEVAAGATARHVCEMLVQRAHALSDETWGLVECHPHLALERGLEDHESVVEVQAAWPVGGDSRFVFRKNFAK
stoichiometry N (SEC): 3
stoichiometry N (cross-linking): 2
